Legend:
[1] = target: CjAA10BΔCBM, cellulose active LPMO CjAA10B from Cellvibrio japonicus lacking its CBM (Cellvibrio japonicus)
[2] = target: CfAA10, LPMO from Cellulomonas fimi (Cellulomonas fimi)
[3] = substrate: O=C1O[C@H]([C@@H](O)CO)C(O)=C1O; assay: Amplex Red / horseradish peroxidase coupled H2O2 production, initial rates; format: biochemical, Cellvibrio japonicus; conditions: reductant varied, no polysaccharide, O2 from air, 50 mM sodium phosphate pH 6.0, room temperature, 2 µM LPMO
Text: Amplex Red / horseradish peroxidase coupled H2O2 production, initial rates on CjAA10BΔCBM | concentration of CjX183, or ascorbate, was varied around calculated KM values

B1: CjX183, c-type cytochrome X183 domain of Cbp2D from Cellvibrio japonicus (domain or fragment)
chain: GYLVGDATRGANLWNTQTCVACHGVDGERNASGTPALTPLNPNRDLYRHSRDTQDRALRDFISMWMPQGNEGSCTGQCAADIEAFIRTW
modifications: heme c covalently linked via thioether linkages to Cys19 and Cys22 (numbering of the structure); disulfide bond between cysteines 74 and 78
rate of oxidation of reduced CjX183 (10 µM, decay of A552, single exponential) with 0 to 50 µM CjAA10BΔCBM; rate rose linearly [1]: 0.56 min⁻¹
rate of oxidation of reduced CjX183 (10 µM, decay of A552, single exponential) with 0 to 50 µM CfAA10; rate rose linearly [2]: 1.13 min⁻¹

B2: CjAA10BΔCBM (Cellvibrio japonicus Ueda107) (protein)
chain: HGFVDSPGARNYFCGAVTKPDHVMNGVARYPECAGAFANDFNGGYSYMSVLTHHQGRKVLGPVARNVCGFDSETWNGGKTPWDNAINWPVNNINSGTLTFSWDISNGPHFDDTSDFRYWITKPGFVYQVGRELTWADFEDQPFCDLAYNDDNPGAYPNVRADKPNTHFHTTCTVPARTGRHVIYAEWGREPPTYERFHGCIDVQIGGGSNSSVPVSSSSSSRSSSSSSLAPSSSSRSSSSSSSVSSSRSSSSSVVSSSSSSRPASSSSSSTGGS
notes: AA10 catalytic part, C-terminal CBM deleted, from pET22-CjAA10B
Km [3]: 5.8 ± 0.3 µM

From paper PMC8981238, “C-type cytochrome-initiated reduction of bacterial lytic polysaccharide monooxygenases” (Biochemical Journal, 2021)
